Changes are numbered by the printed parent chain. Names may count otherwise.
B1: hLK26-T155C-IgG4p-Tap18Hr1 (antibody, name in EU numbering)
heavy: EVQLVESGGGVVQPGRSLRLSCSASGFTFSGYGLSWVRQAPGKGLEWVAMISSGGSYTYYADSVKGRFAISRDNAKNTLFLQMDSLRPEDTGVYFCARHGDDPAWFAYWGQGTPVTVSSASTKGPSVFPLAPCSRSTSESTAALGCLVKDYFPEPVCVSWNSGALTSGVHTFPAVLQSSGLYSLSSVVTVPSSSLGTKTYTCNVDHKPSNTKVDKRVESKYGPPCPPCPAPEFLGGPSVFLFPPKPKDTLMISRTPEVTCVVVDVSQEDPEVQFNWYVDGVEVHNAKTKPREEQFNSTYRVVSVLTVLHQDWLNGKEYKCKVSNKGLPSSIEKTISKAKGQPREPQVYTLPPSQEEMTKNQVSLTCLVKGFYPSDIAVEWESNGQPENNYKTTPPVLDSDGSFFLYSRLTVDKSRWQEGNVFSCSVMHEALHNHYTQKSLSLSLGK
light: DIQLTQSPSSLSASVGDRVTITCSVSSSISSNNLHWYQQKPGKAPKPWIYGTSNLASGVPSRFSGSGSGTDYTFTISSLQPEDIATYYCQQWSSYPYMYTFGQGTKVEIKRTVAAPSVFIFPPSDEQLKSGTASVVCLLNNFYPREAKVQWKVDNALQSGNSQESVTEQDSKDSTYSLSSTLTLSKADYEKHKVYACEVTHQGLSSPVTKSFNRGEC
modifications: Tap18Hr1 linker-drug on the introduced Cys 155 (EU numbering)
notes: Site-specific ADC
B2: hLK26-IgG1 (antibody)
heavy: not shown
light: B1 light
notes: Humanized anti-FRA antibody, human IgG1 / kappa, unconjugated; also called naked Ab hLK26-IgG1; unconjugated hLK26-IgG1
B3: hLK26-T155C-IgG1-Tap18Hr1 (antibody, name in EU numbering)
heavy: not shown
light: B1 light
modifications: Tap18Hr1 linker-drug on the introduced Cys 155 (EU numbering)
notes: Site-specific ADC
B4: hLK26-L201C-IgG4p-Tap18Hr1 (antibody, name in EU numbering)
heavy: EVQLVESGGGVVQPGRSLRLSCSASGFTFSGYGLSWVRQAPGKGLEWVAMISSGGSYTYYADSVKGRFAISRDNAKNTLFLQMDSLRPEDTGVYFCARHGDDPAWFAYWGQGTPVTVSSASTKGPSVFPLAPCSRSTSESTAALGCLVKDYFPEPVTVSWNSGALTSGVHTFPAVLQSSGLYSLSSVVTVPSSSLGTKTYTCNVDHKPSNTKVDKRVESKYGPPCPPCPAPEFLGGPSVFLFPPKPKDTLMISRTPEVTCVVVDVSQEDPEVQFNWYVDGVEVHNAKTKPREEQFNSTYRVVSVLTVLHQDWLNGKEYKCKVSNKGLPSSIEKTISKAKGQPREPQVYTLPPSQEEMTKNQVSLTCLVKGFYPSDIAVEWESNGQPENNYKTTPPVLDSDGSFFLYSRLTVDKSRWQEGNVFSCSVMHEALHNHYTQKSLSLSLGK
light: B1 light with L204C
modifications: Tap18Hr1 linker-drug on the introduced Cys 201 (EU numbering)
notes: Site-specific ADC with kappa light chain mutant
B5: hLK26-S442C-IgG4p-Tap18Hr1 (antibody, name in EU numbering)
heavy: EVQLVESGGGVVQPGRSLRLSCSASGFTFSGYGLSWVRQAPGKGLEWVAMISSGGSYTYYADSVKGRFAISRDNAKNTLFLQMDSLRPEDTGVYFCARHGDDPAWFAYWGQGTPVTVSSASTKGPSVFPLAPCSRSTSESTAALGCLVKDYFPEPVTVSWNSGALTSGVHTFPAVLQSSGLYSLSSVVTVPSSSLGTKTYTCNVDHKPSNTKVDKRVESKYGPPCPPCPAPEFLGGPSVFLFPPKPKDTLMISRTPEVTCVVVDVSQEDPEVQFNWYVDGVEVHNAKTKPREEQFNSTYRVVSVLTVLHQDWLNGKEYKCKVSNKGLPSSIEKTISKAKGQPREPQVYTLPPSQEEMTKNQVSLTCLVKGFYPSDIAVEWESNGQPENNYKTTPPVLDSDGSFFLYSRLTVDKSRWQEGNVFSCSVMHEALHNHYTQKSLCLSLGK
light: B1 light
modifications: Tap18Hr1 linker-drug on the introduced Cys 442 (EU numbering)
notes: Site-specific ADC
B6: hLK26-T199C-IgG4p-Tap18Hr1 (antibody, name in EU numbering)
heavy: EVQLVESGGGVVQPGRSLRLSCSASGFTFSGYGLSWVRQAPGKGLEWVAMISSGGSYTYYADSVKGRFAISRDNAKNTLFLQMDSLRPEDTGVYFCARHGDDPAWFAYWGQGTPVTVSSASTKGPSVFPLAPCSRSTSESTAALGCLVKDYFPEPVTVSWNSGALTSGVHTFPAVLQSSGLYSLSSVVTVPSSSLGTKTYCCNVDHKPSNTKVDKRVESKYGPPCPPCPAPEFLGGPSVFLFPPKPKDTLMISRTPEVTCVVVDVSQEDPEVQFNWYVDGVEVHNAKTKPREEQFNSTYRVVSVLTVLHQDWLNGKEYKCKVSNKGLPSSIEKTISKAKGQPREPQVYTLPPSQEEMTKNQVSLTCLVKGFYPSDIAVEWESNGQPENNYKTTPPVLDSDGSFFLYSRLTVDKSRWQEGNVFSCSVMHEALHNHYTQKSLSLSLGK
light: B1 light
modifications: Tap18Hr1 linker-drug on the introduced Cys 199 (EU numbering)
notes: Site-specific ADC
B7: hLK26-S442C-IgG1-Tap18Hr1 (antibody, name in EU numbering)
heavy: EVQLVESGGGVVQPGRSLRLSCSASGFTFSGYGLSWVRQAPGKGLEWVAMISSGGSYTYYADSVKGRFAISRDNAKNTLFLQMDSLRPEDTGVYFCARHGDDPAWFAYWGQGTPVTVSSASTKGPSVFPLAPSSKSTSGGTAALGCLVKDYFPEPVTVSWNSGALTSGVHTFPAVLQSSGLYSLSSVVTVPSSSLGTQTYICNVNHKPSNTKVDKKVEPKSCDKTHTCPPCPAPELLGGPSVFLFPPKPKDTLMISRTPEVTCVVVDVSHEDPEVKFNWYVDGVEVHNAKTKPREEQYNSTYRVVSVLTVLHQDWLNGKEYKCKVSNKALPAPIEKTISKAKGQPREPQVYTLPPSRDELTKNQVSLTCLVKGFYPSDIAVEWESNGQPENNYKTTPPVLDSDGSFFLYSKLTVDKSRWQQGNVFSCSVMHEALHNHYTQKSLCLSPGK
light: B1 light
modifications: Tap18Hr1 linker-drug on the introduced Cys 442 (EU numbering)
notes: Site-specific ADC
B8: hLK26-T206C-IgG1-Tap18Hr1 (antibody, name in EU numbering)
heavy: not shown
light: B1 light with T209C
modifications: Tap18Hr1 linker-drug on the introduced Cys 206 (EU numbering)
notes: as for B4

Legend:
[1] = molecular target: T1, human folate receptor alpha (FRA) (human, UniProt P15328 25-234); assay: flow cytometry on SK-OV-3 cells, 1.1 µg/mL
T1 construct: In the assays FRA is the endogenous protein on FRA-expressing human cancer cell lines (SK-OV-3, OVCAR-3, OVCAR-3B, NCI-H2110, NCI-H292); also called human FRA
Experimental: (§1) 1×10⁵ cells were seeded per well in a v-bottomed 96-well plate and incubated with 50 μl of the unconjugated Abs or the ADCs at titrated concentrations or isotype control antibody human IgG at 10 μg/mL. After 60 minutes of incubation at 4° C., cells were washed once with 200 μl FACS buffer (1×PBS containing 1% FBS), stained with 50 μl of 1 μg/ml goat F(ab′)2-anti-human IgG (H+L)-RPE or goat anti-human IgG-RPE (SOUTHERN BIOTECH®, Cat. No. 2043-09 or 2040-09) in FACS buffer and then incubated at 4° C. for 30 min Cells were washed once with FACS buffer and analyzed by flow cytometer (BD LSR, BD Life Sciences).
(§2) The binding activities of site-specific conjugates of hLK26-Cys variants-Tap18Hr1 were evaluated by flow cytometric analysis in ovarian cancer SK-OV-3 and OVCAR-3B (Table 9-10) and lung cancer NCI-H2110 and NCI-H292 (Table 11-12) cells. The Mean fluorescence intensity (MFI) values in the tables represent binding activity of ADCs at tested concentration. […] The IgG4p variants-Tap18Hr1 conjugates also bind to all the FRA positive cancer cells tested here, but the fluorescent intensities were generally lower than those observed with IgG1 variants. This decrease in binding activity is likely attributed to IgG4 isotype rather than cysteine mutation. Overall, the site-specific conjugated hLK26-Cys variants retain antigen reactivity to the ovarian and lung cancer cells tested.

[2] = molecular target: T1, human folate receptor alpha (FRA); assay: flow cytometry on NCI-H2110 cells, 3.3 µg/mL
Experimental: as §1, §2

[3] = molecular target: T1, human folate receptor alpha (FRA); assay: flow cytometry on OVCAR-3B cells, 1.1 µg/mL
Experimental: as §1, §2

[4] = molecular target: T1, human folate receptor alpha (FRA); assay: flow cytometry on NCI-H292 cells, 3.3 µg/mL
Experimental: as §1, §2

T1 sequence (P15328 25-234 limits assumed): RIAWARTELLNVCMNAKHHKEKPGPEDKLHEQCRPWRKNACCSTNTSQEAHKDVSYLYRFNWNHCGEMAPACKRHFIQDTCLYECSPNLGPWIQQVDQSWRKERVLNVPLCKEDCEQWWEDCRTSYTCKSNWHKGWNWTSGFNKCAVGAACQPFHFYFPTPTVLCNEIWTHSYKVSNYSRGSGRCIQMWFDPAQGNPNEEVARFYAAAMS

| Binder | MFI [1] [MFI] | MFI [2] [MFI] | MFI [3] [MFI] | MFI [4] [MFI] |
| --- | --- | --- | --- | --- |
| B1 | 1890 | 494 | 806 | 1180 |
| B2 | – | – | 1150 | 1460 |
| B3 | 2470 | 649 | 1060 | 1450 |
| B4 | 1000 | 890 | – | – |
| B5 | 1880 | 479 | 769 | 1090 |
| B6 | 966 | 898 | – | – |
| B7 | 2080 | 605 | 967 | 1280 |
| B8 | 1270 | 1180 | – | – |

Source: patent US20160015827A1 (BIOALLIANCE C V, published 2016)
